Consider five molecules from article PMC4017264 (Molecular Cell, 2014).

Test [1] has as its system HOIP (Met1-linked polyUb). Briefly: HOIP autoubiquitination, purification of endogenous Met1-polyUb conjugates (M1-SUB pulldown). It is filed as cell-based. The following applies: U2OS/NOD2 cells, ectopic OTULIN variants, basal, identical with L18-MDP or TNF, immunoblot. From the text: Antibodies and affinity resin
The following antibodies and reagents were used according to the manufacturers’ instructions: anti-HA-agarose resin (A2095), anti-V5-agarose resin (A7345) and rabbit polyclonal anti-HOIP/RNF31 (SAB2102031, Sigma-Aldrich), rat monoclonal anti-HA (#11867423991, Roche Diagnostics, Burgess Hill, UK), mouse monoclonal anti-ubiquitin (IMG-5021, Imgenex, San Diego, CA), rabbit polyclonal anti-SHARPIN (#14626-1-AP, ProteinTech, Chicago, IL), rabbit polyclonal anti-RBCK1/HOIL-1 (NBP1-88301, Novus Biologicals, Littleton, CO), mouse monoclonal anti-V5 (MCA1360, AbD Serotec, Kidlington, UK), mouse monoclonal anti-$-actin (MAB1501, Chemicon, Millipore, Billerica, MA), rabbit polyclonal anti-HOIL-1, rabbit polyclonal anti-HOIP/RNF31
(Sigma), mouse monoclonal anti-p97 (Thermo Scientific). The
Fam105B/OTULIN antibody was previously described (Keusekotten et al., 2013). […]
HEK293ET, RPE1 and U2OS cells were collected, washed with PBS and lysed on ice for 30 minutes in SEC cell extraction buffer (150 mM NaCl, 50 mM Tris-HCl pH 7.4, 1 mM MgCl2, 1 mM DTT, 0.3% NP40, protease and (Roche)). […] In total 3.1 mg protein extract was analyzed on a Superdex 200 10/300 GL column (GE Life Sciences). […]

The target of test [2] is FITC-Ahx-labeled OTULIN PIM peptide (aa 49–67) (UniProt Q96BN8). As to the kind of experiment: fluorescence polarisation; serially diluted PUB domains and HOIP variants mixed with an equal volume of 100 nM FITC-Ahx-labeled peptide; one-site binding model; triplicate.
Test [3] concerns the target T1, HOIP PUB domain (aa 5–180) (UniProt Q96EP0 5-180).
T1 construct: HOIP, residues 5-180, PUB domain; also called HOIP 5–180; slightly truncated HOIP PUB domain construct
T1 sequence (looked up): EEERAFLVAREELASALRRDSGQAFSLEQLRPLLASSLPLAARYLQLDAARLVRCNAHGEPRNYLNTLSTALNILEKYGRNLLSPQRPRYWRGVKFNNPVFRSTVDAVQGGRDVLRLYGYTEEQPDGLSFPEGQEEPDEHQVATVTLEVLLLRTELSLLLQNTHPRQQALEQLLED
As to the kind of experiment: crystal structure; HOIP 5–180 with OTULIN 49–67, 2.0 Å, space group P 6(1), two molecules in the asymmetric unit. The following applies: both partners purified.

Test [4] addresses T2, HOIP extended PUB domain (aa 1–184) (UniProt Q96EP0 1-184).
T2 construct: 15N- or 13C,15N-labelled for NMR; Construct details are in the Supplemental Experimental Procedures; also called HOIP PUB domain
T2 sequence (looked up): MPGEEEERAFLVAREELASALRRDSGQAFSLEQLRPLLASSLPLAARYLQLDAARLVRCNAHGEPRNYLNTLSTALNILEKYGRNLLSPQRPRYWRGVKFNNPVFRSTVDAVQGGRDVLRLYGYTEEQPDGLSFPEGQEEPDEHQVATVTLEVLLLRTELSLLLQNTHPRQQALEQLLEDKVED
Briefly: fluorescence polarisation; serially diluted PUB domains and HOIP variants mixed with an equal volume of 100 nM FITC-Ahx-labeled peptide; one-site binding model; triplicate. The note with it: both partners purified.

A further test deals with T3, PNGase PUB domain R55A (UniProt Q96IV0 11-109, Arg55 was mutated to Ala).
T3 construct: PNGase PUB domain with Arg55 mutated to Ala; also called PNGase mutant; Arg55 mutated to Ala
T3 sequence (looked up): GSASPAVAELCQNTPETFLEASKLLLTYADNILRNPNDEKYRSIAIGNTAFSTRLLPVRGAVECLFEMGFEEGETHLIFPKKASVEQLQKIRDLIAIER
Described as above. The following applies: both partners purified.

The subject of test [5] is HOIP PUB domain (15N HOIP 1-184). As to the kind of experiment: NMR binding (chemical shift perturbation) to 15N-labeled HOIP PUB domain. Also on record: species or system Human. The note with it: 15N BEST-TROSY NMR, 100 μM 15N HOIP 1-184, 20 mM phosphate pH 6.8, 50 mM NaCl, 2 mM DTT, 298K. As for the experimental part: Standard triple-resonance experiments (HNCA, HN(CO)CA, HNCACB, CBCA(CO)NH, and HBHA(CO)NH) were acquired for the assignment of HOIP resonances. Constant time ^13C and ^13C-HSQC were acquired for the methyl and aromatic regions. In addition, (HB)CB(CGCD)HD and (HB)CB(CGCDCE)HE experiments coupled the Cβ of tyrosine resonances to the Hδ and Hε positions of the tyrosine ring, respectively.
Fluorescence polarization binding assays
10 µl of 100 nM FITC-Ahx peptides of either OTULIN (49-67) or p97 (797-806) were aliquoted into a 384-well low volume plate (Corning). Serial dilutions of HOIP PUB into FP assay buffer (20 mM Tris pH 7.4, 100 mM NaCl, 1 mM DTT) were prepared and 10 µl of this was aliquoted to FITC-Ahx peptide-containing wells. Fluorescence polarization was recorded on a PheraStar plate reader (BMG Labtech) using an optics module with $ex = 485 nm and $em = 520 nm. To derive binding constants (KD), polarization values were fitted to a one-site binding model using Graphpad Prism 5.
Nuclear Magnetic Resonance Spectroscopy
Uniformly labeled 15N or 13C, 15N samples of HOIP were prepared following growth in 2M9 medium supplemented with either 15N NH4Cl or 13C glucose.
Proteins were purified as described above and all samples were exchanged into NMR sample buffer (20 mM Na2HPO4/NaH2PO4 pH 6.8, 50 mM NaCl, 2 mM DTT). Lyophilized OTULIN and p97 PIM peptides were reconstituted in NMR sample buffer and the pH adjusted to pH 6.8 prior to use. NMR data were acquired at 298K on Bruker Avance III 600 MHz and Avance2+ 700
MHz spectrometers, equipped with cryogenic triple resonance TCI probes.
Standard triple resonance experiments (HNCA, HN(CO)CA, HNCACB, CBCA(CO)NH, HBHA(CO)NH) were acquired for the assignment of backbone
HOIP resonances. In addition, constant-time (ct) 13C and 13C-HSQC were acquired for the methyl and aromatic regions. For assignment of the H",H# resonances of HOIP tyrosines, (HB)CB(CGCD)HD and (HB)CB(CGCDCE)HE spectra were acquired, which coupled the C$ position of the tyrosine resonances to the H"/H# position of the tyrosine ring respectively. […]

No end group written: not given here. *: point of attachment. FITC = O=C1OC2(c3ccc(O)cc3Oc3cc(O)ccc32)c2ccc(NC(=S)*)cc21; Ahx = NCCCCCC(=O)O

Take “inactive OTULIN with a mutation in the PIM (Y56A): catalytically inactive OTULIN (C129A) with PIM mutation Y56A”: in test [1], the “HOIP autoubiquitination with Met1-linked polyUb (in words)” value is “did not lead to HOIP autoubiquitination”. For the molecule “HOIP extended PUB domain (aa 1–184) (from UniProt Q96EP0 1-184) (domain or fragment)”, in test [2], the Kd was 180 nM. This counts as sub-micromolar.

B1: unlabeled OTULIN PIM peptide (aa 49–67) (peptide, UniProt Q96BN8 49-67, looked up)
peptide: AEHEEDMYRAADEIEKEKE
notes: OTULIN, residues 49-67; Called unlabeled for NMR; also called OTULIN 49–67
In the case of B1, the binding result in test [3] is reported as “binds”.

B2: fluorescently labeled OTULIN PIM peptide (aa 49–67) M55L (peptide, UniProt Q96BN8 49-67, looked up)
peptide: {FITC-Ahx}-AEHEEDLYRAADEIEKEKE
notes: OTULIN, residues 49-67, Met55 exchanged to Leu (as in p97); also called OTULIN M55L PIM peptide
Turning to B2, the figures for the Kd (in test [4]; with PNGase PUB domain R55A) were 370 nM and 5000 nM, respectively.

B3: OTU domain: OTULIN catalytic (OTU) domain (aa 80–352) (protein)
chain: LSVAPEMDIMDYCKKEWRGNTQKATCMKMGYEEVSQKFTSIRRVRGDNYCALRATLFQAMSQAVGLPPWLQDPELMLLPEKLISKYNWIKQWKLGLKFDGKNEDLVDKIKESLTLLRKKWAGLAEMRTAEARQIACDELFTNEAEEYSLYEAVKFLMLNRAIELYNDKEKGKEVPFFSVLLFARDTSNDPGQLLRNHLNQVGHTGGLEQVEMFLLAYAVRHTIQVYRLSKYNTEEFITVYPTDPPKDWPVVTLIAEDDRHYNIPVRVCEETSL
modifications: left off: His6 (from the vector pOPINB), end not stated, state not stated
For B3, the “binding / chemical shift perturbations of HOIP PUB domain (in words)” value in test [5] was “did not interact with the HOIP PUB domain”.
